Laboratory results reported in patent US20240174992A1, “SPLIT MODIFIED DEHALOGENASE VARIANTS” (Promega Corporation, priority 2022, published 2024).
Each block holds one substance with its values, some of them ahead of it.

What was measured:
Test in all cases: cell-based or functional assay
[1] = target: HaloTag[22-297](M2F)-FRB (UniProt P42345)
[2] = target: HaloTag[22-297](Q145H+P154R)-FRB (UniProt P42345)
[3] = target: HT(23-297)-FRB fragment fused to LgBiT (UniProt P42345)
[4] = target: HT(146-297)-FRB (UniProt P42345)
[5] = target: HT(158-297)-FRB (UniProt P42345)
[6] = target: [196-297]-FRB (UniProt P42345)
Sequence of [196-297]-FRB (P42345 other isoform, or with tags, fused parts or gaps limits assumed): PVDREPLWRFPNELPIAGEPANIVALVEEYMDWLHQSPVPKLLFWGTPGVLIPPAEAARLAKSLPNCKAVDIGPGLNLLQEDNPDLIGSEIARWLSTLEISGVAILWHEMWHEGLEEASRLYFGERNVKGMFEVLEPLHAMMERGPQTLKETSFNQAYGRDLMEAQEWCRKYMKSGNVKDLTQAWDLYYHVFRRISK

Sequence of HaloTag[22-297](Q145H+P154R)-FRB (P42345 other isoform, or with tags, fused parts or gaps Q145H P154R Q145H P154R): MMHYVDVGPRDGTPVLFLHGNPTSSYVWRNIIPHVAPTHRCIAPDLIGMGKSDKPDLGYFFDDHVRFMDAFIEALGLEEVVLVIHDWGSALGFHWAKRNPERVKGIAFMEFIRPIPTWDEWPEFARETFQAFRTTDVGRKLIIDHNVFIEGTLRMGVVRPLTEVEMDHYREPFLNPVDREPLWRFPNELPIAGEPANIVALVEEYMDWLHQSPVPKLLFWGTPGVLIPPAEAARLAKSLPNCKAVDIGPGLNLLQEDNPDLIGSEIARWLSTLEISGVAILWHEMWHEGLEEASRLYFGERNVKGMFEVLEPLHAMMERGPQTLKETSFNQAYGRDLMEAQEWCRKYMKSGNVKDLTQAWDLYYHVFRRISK
Sequence of EGFP-FKBP-HaloTag[3-19] (P62942 other isoform, or with tags, fused parts or gaps): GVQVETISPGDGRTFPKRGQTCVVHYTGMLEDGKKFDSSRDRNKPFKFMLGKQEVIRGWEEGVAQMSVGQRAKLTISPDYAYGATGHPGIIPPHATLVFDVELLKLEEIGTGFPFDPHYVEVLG
Sequence of HaloTag[22-297](M2F)-FRB (P42345 other isoform, or with tags, fused parts or gaps): as the sequence (P42345 other isoform, or with tags, fused parts or gaps Q145H P154R Q145H P154R) above, with M2F, H145Q, R154P counted along it
Sequence of [1-195]-FKBP (P62942 other isoform, or with tags, fused parts or gaps): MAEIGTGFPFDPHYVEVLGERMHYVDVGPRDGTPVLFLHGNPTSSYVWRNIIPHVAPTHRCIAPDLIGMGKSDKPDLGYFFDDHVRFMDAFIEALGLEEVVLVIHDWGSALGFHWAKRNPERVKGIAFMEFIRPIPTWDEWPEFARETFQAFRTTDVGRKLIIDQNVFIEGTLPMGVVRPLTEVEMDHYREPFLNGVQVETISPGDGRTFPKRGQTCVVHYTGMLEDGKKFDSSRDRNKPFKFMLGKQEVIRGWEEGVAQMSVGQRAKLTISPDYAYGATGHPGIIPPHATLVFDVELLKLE
Sequence of FKBP-HT(1-33) fragment as SmBiT or HiBiT fragment fusions (P62942 other isoform, or with tags, fused parts or gaps): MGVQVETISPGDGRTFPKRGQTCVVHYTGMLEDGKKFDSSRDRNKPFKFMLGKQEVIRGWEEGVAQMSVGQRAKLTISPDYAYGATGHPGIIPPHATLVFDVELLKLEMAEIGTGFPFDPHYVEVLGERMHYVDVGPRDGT
Sequence of HT(23-297)-FRB fragment fused to LgBiT (P42345 other isoform, or with tags, fused parts or gaps): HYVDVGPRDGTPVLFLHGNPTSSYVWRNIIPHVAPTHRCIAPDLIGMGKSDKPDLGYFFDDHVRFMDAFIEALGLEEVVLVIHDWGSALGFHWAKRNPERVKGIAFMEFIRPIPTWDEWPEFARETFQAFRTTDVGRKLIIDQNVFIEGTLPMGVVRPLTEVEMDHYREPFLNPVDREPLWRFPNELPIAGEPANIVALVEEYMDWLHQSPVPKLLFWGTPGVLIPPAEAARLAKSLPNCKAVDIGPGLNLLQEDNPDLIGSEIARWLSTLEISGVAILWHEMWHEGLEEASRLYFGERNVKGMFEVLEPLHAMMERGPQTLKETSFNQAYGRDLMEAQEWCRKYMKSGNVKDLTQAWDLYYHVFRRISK
Sequence of HT(158-297)-FRB (P42345 other isoform, or with tags, fused parts or gaps limits assumed): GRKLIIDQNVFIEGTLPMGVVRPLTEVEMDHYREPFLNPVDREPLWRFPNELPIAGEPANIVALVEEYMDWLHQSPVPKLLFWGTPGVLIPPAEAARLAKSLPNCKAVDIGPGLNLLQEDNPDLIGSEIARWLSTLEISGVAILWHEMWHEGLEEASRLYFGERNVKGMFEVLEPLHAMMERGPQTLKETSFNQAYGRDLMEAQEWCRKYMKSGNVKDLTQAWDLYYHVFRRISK
Sequence of HT(1-157)-FKBP (P62942 other isoform, or with tags, fused parts or gaps): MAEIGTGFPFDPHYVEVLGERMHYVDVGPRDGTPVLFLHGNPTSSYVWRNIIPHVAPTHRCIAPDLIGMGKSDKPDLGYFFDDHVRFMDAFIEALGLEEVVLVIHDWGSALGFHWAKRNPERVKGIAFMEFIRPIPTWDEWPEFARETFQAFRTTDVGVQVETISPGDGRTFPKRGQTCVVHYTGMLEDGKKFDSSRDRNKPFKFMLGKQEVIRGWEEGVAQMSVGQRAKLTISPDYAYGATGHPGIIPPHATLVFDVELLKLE
Sequence of HT(146-297)-FRB (P42345 other isoform, or with tags, fused parts or gaps limits assumed): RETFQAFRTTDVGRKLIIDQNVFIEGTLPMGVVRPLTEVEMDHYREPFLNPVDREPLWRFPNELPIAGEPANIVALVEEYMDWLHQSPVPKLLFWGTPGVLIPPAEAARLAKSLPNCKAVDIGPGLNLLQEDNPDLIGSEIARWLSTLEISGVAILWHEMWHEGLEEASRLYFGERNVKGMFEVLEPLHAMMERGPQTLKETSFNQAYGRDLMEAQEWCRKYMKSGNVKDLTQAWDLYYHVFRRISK
Sequence of HT(1-145)-FKBP (P62942 other isoform, or with tags, fused parts or gaps): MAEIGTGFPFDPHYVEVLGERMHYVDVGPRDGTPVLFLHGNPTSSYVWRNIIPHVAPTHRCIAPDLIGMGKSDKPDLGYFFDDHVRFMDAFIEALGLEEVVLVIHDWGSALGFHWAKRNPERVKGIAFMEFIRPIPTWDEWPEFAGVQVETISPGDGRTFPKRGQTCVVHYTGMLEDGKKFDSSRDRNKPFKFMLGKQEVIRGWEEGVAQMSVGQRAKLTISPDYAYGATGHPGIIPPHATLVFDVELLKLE

- S:B ratio in +rapamycin/-rapamycin conditions, live HeLa imaging [1]: 6.7
- signal-to-background ratio, complemented split HaloTag with rapamycin over the large HaloTag alone [1]: 16
- S:B ratio in +rapamycin/-rapamycin conditions, live HeLa imaging [2]: 4
- fold response of JF646 fluorescence to rapamycin, live HeLa imaging [2]: 25 fold
- signal-to-background ratio, complemented split HaloTag with rapamycin over the large HaloTag alone [2]: 5.7
Substance: EGFP-FKBP-HaloTag[3-19] (from UniProt P62942 2-108)

- fold increase of JF646 and JF585 fluorescence in live HeLa cells with 50 nM rapamycin [4]: < 2 fold
Substance: HT(1-145)-FKBP (from UniProt P62942 2-108)

- fold increase of JF646 and JF585 fluorescence in live HeLa cells with 50 nM rapamycin [5]: < 2 fold
Substance: HT(1-157)-FKBP (from UniProt P62942 2-108)

Further lines, the substance ahead of its results:

Substance: FKBP-HT(1-33) fragment as SmBiT or HiBiT fragment fusions (from UniProt P62942 1-108)
- fold increase in NanoBiT luminescence on addition of rapamycin [3]: 100 to 250 fold

Substance: [1-195]-FKBP (from UniProt P62942 2-108)
- fold increase in JF646 fluorescence with 50 nM rapamycin (E. coli lysates) [6]: 4.7 fold
- fold increase of JF646 and JF585 fluorescence in live HeLa cells with 50 nM rapamycin [6]: < 2 fold
